Test results reported in patent publication US20120121596A1 (published 2012).
Substitutions are numbered along the chain they refer to.

B1: DL3-11f (antibody, V domains shown)
VH: EVQLVESGGGLVQPGGSLRLSCAASGFTLSGDWIHWVRQAPGKGLEWVGEISAAGGYTDYADSVKGRFTISADTSKNTAYLQMNSLRAEDTAVYYCARESKVSFEAAMDYWGQGTLVTVSS
VL: DIQMTQSPSSLSASVGDRVTITCRASQNIATDVAWYQQKPGKAPKLLIYSASFLYSGVPSRFSGSGSGTDFTLTISSLQPEDFATYYCQQSEPEPYTFGQGTKVEIKR
B2: DL3-11b (antibody, V domains shown)
VH: B1 VH with V48L
VL: B1 VL
notes: also called DL3-11fb
B3: D1.5-115 (phage-displayed Fab clone) (Fab, V domains shown)
VH: B1 VH with L29F, S30T, D32N, A53P, A54S, K101R, F104Y
VL: B1 VL with N28E, A30F, T31P, F53S, S91A, E92A, E94T
notes: EGFR/HER3 clone
B4: D1.5-116 (phage-displayed Fab clone) (Fab, V domains shown)
VH: B1 VH with L29F, S30T, D32N, A53P, A54S, K101R, F104Y
VL: B1 VL with N28A, T31S
notes: EGFR/HER3 clone
B5: D1.5-121 (phage-displayed Fab clone) (Fab, V domains shown)
VH: B1 VH with L29F, S30T, D32N, A53P, A54S, K101R, F104Y
VL: B1 VL with N28D, I29V, A30G, T31S, V33L, F53Y, E92D
notes: EGFR/HER3 clone
B6: D1.5-113 (phage-displayed Fab clone) (Fab, V domains shown)
VH: B1 VH with L29F, S30T, D32N, A53P, A54S, K101R, F104Y
VL: DIQMTQSPSSLSASVGDRVTITCRASQSLLASHDGTPWVAWYQQKPGKAPKLLIYDASYLYSGVPSRFSGSGSGTDFTLTISSLQPEDFATYYCQQSTFAPYTFGQGTKVEIKR
notes: EGFR/HER3 clone
B7: D1.5-122 (phage-displayed Fab clone) (Fab, V domains shown)
VH: B1 VH with L29F, S30T, D32N, A53P, A54S, K101R, F104Y
VL: B1 VL with T31S, F53S, E92D
notes: EGFR/HER3 clone
B8: D1.5-103 (phage-displayed Fab clone) (Fab, V domains shown)
VH: B1 VH with L29F, S30T, D32N, A53P, A54S, K101R, F104Y
VL: DIQMTQSPSSLSASVGDRVTITCRASQALGDSENGYADVAWYQQKPGKAPKLLIYEGSSLYSGVPSRFSGSGSGTDFTLTISSLQPEDFATYYCQQAAPSPYTFGQGTKVEIKR
notes: EGFR/HER3 clone
B9: DL11 (mIgG2A) (bispecific antibody, V domains shown)
VH: B1 VH with V48L, K101R
VL: B1 VL with N28D, I29L
B10: DL11b (bispecific antibody, V domains shown)
VH: B1 VH with V48L, K101R
VL: B1 VL
B11: D1.5-115 (mIgG2A) (bispecific antibody, V domains shown)
VH: B1 VH with L29F, S30T, D32N, A53P, A54S, K101R, F104Y
VL: B1 VL with N28E, A30F, T31P, F53S, S91A, E92A, E94T
B12: D1.5-116 (mIgG2A) (bispecific antibody, V domains shown)
VH: B1 VH with L29F, S30T, D32N, A53P, A54S, K101R, F104Y
VL: B1 VL with N28A, T31S
B13: D1.5-121 (mIgG2A) (bispecific antibody, V domains shown)
VH: B1 VH with L29F, S30T, D32N, A53P, A54S, K101R, F104Y
VL: B1 VL with N28D, I29V, A30G, T31S, V33L, F53Y, E92D
B14: D1.5-122 (mIgG2A) (bispecific antibody, V domains shown)
VH: B1 VH with L29F, S30T, D32N, A53P, A54S, K101R, F104Y
VL: B1 VL with T31S, F53S, E92D
B15: D1.5-100 (mIgG2A) (bispecific antibody, V domains shown)
VH: B1 VH with L29F, S30T, D32N, A53P, A54S, K101R, F104Y
VL: B1 VL with N28D, I29L
notes: also called anti-EGFR/HER3 antibody D1.5-100
B16: D1.5-113 (mIgG2A) (bispecific antibody, V domains shown)
VH: B1 VH with L29F, S30T, D32N, A53P, A54S, K101R, F104Y
VL: B6 VL
B17: D1.5-103 (mIgG2A) (bispecific antibody, V domains shown)
VH: B1 VH with L29F, S30T, D32N, A53P, A54S, K101R, F104Y
VL: B8 VL
B18: D1.5-201-3 (phage-displayed Fab clone) (Fab, V domains shown)
VH: B1 VH with L29F, S30T, D32N, A53P, A54S, K101R, F104Y
VL: DIQMTQSPSSLSASVGDRVTITCRASQSLWAAYFAPVAWYQQKPGKAPKLLIYDGSYLYSGVPSRFSGSGSGTDFTLTISSLQPEDFATYYCQQRLPSPYTFGQGTKVEIKR
B19: D1.5-201-2 (phage-displayed Fab clone) (Fab, V domains shown)
VH: B1 VH with L29F, S30T, D32N, A53P, A54S, K101R, F104Y
VL: B18 VL with S26N, L29I, W30A, A31G, F34Y, S56Y, Y57F

target: HER3 (form not given) (human, UniProt P21860 20-643, limits assumed); assay: affinity maturation of DL11

Binder	binding result
B1	binds
B2	binds

target: T1, HER3-ECD-Fc (human, UniProt P21860 20-643, limits assumed); assay: direct phage ELISA, proteins coated at 2 µg/ml, phage-Fab supernatant, OD450;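 further: specificity test of dual-activity clones, with binding assessed across an antigen panel to check whether each recognises only its cognate target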
T1 construct: extracellular domain; also called HER3-FC; HER3-IgG

Binder	binding result
B3	binds
B4	binds
B5	binds
B6	binds

target: T2, HER4-ECD-Fc (human, UniProt Q15303 26-651, limits assumed); assay: as above
T2 construct: extracellular domain
T2 sequence (looked up): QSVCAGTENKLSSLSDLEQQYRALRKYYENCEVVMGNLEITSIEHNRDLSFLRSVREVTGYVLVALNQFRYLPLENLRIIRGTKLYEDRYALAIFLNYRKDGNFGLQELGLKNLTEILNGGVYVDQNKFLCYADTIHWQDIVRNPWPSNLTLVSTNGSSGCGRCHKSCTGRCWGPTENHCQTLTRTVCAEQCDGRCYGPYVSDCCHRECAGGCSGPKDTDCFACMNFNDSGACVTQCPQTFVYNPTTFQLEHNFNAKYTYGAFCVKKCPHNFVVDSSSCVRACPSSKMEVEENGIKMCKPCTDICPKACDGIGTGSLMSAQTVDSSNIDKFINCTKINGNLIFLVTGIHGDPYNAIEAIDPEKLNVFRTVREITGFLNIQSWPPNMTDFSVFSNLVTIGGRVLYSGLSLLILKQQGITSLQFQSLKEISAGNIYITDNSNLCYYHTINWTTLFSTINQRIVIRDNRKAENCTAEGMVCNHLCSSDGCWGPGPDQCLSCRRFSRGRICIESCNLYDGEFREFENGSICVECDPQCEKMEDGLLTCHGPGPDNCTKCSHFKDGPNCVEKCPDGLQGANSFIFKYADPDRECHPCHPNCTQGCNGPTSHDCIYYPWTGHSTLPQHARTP

Binder	binding result
B3	no binding
B4	no binding
B5	no binding
B7	no binding
B8	no binding
B6	no binding

target: T3, Erbitux; assay: as above
T3 construct: also called cetuximab; C225; not shown: the constant regions

Binder	binding result
B3	no binding
B4	no binding
B5	no binding
B8	no binding
B6	no binding

target: T4, hEGFR-ECD (human, UniProt P00533 25-645); assay: as above
T4 construct: extracellular domain

Binder	binding result
B3	binds
B4	binds
B5	binds
B7	binds
B8	binds
B6	binds

target: T5, HER2-ECD (human, UniProt P04626 23-652); assay: as above
T5 construct: extracellular domain

Binder	binding result
B3	no binding
B4	no binding
B5	no binding
B7	no binding
B8	no binding
B6	no binding

target: T6, BSA (bovine, UniProt P02769); assay: as above
T6 construct: also called bovine serum albumin
T6 sequence (P02769 25-607 limits assumed): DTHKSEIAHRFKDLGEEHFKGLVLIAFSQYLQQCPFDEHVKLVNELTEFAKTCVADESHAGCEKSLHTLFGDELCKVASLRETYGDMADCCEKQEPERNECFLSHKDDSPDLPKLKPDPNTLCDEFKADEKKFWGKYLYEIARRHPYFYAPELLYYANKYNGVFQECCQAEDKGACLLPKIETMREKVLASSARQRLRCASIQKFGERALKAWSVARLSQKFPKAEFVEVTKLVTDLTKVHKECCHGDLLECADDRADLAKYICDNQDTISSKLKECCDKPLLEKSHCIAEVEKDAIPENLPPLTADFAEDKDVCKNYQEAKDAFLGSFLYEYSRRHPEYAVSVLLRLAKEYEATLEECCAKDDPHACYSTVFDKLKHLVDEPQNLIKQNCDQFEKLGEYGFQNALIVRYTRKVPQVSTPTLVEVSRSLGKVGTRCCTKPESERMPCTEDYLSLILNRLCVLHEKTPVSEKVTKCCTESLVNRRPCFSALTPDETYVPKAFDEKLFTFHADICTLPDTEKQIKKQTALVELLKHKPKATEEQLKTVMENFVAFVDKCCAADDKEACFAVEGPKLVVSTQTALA

Binder	binding result
B3	no binding
B4	no binding
B5	no binding
B7	no binding
B8	no binding
B6	no binding

target: HER3 on cells (MCF7 cells; MDA-175 cells) (UniProt P21860 20-1342, limits assumed); assay: cell-based or functional assay

Binder	IC50 of inhibition of MDA-175 cell proliferation
B9	0.8 to 1 µg/mL
B10	0.8 to 1 µg/mL

target: T1, HER3-ECD-Fc; assay: competition with 125I-HRG for HER3-ECD-Fc captured on anti-human antibody plates, antibody pre-bound, counts as % of control

Binder	binding result	IC50 (read off the curve)
B11	binds	–
B12	binds	–
B13	binds	–
B14	–	~3 nM
B15	–	~2 nM
B16	binds	–
B17	–	~3 nM

target: T4, hEGFR-ECD; assay: phage IC50 (solution competition ELISA), compared to D1.5-201

Binder	binding result
B18	binds
B19	binds

target: T5, HER2-ECD; assay: as above

Binder	binding result
B18	binds
B19	binds
